Laboratory results as given in patent CN104862283A (UNIV JINAN, dated 2015).

T1: 人肌红蛋白(Human Myoglobin) (human, UniProt P02144 2-154)
T1 construct: mature; Native protein, bought; also called 人肌红蛋白标准抗原; ABCam ab77876
T1 sequence (looked up): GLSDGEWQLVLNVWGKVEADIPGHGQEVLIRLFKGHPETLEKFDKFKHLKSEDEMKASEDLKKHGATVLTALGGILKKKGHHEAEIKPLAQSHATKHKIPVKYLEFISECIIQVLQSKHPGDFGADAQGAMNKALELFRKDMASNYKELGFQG

B1: 鼠源抗人肌红蛋白单克隆抗体5M7 (antibody)
chain 1: VQLQESGAELARPGASVKLSCKASGYTFTIYWMQWVKQRPGQGLEWIGSIYPGDGDTRYNQKFKGKATFTADKSSSTAYMQLISLASEDSAVYYCATGLYYGYDEGHWYFDVWGQGTTV
chain 2: DIVMSQSPASLAVSLGQRATISYRASKSVSTSGYSYMHWNQQKPGQPPRLLIYLVSNLESGVPARFSGSGSGTDFTLNIHPVEEEDAATYYCQHIR
B2: 鼠源抗人肌红蛋白单克隆抗体3M4 (antibody, V domains shown)
VH: VKLQESGGGLVQPGGSMKLSCVASGFNFSSYWMSWVRQSPEKGLEWVAEIRLKSDNYATHYAESVKGKFTISRDDSKSSLYLQMNNLRTEDTGIYFCADHGLTGHWGQGTTVTVSS
VL: LTQSPAIMSASPGEKVTLTCSASSSVSSSYLYWYQQKPGSSPKIWIYSTSNLAFGVPDRFSGSGSGTSYSLTISTMEAEDAASYFCHQWSSYPFTFGAGTKLE

Target: T1, 人肌红蛋白(Human Myoglobin)
Experiment: indirect ELISA, human myoglobin coated at 300 ng/ml, purified antibody in two-fold dilutions from 1:10 000

| Binder | 效价 (titer, antibody dilution at OD450 about 1.0) [dilution fold] | 效价 (titer, antibody dilution at OD450 about 1.0) (dilution fold) |
| --- | --- | --- |
| B1 | ≥ 1e+06 |  |
| B2 |  | > 1e+06 |
